Biological target: OX40 (receptor of OX40L) on tumor-infiltrating T cells of C57BL/6J mice (mouse) (UniProt P47741)
Assay: cell-based or functional assay

Chain of UniProt P47741 (P47741 20-272): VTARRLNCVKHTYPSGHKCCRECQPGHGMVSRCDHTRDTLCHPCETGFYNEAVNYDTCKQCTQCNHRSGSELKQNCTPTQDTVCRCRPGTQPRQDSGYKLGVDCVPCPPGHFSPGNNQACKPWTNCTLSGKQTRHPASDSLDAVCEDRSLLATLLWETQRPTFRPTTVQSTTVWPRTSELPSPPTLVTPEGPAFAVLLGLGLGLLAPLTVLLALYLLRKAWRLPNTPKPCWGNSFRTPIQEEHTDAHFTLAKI

## murine OX40L (muOX40L) polypeptide (ligand)
  percentages of OX40+FoxP3+CD4+ cells in injected tumors of WT mice (FACS): 19%

From patent US20250179524A1
